This passage reports decrease in tail phosphorylation of dTAG-SMAD3 by immunoblot in U2OS cells co-expressing both, 2 h TGF-β with BDPIC 0.1-10 μM against DMSO results from PMC11298613.

This assay concerns the target HA-bromoTAG-PPM1H.

FLAG-dTAG-SMAD3 registered a decrease in tail phosphorylation of dTAG-SMAD3 by immunoblot in U2OS cells co-expressing both, 2 h TGF-β with BDPIC 0.1-10 μM against DMSO of 50%.
